Substitutions are numbered along the chain they refer to. Numbers in names are those of the source.
T1: Flag-CBFβ F68D (UniProt Q13951 1-170, F68D)
T1 construct: source: 293T, transfected, in lysate
T1 sequence: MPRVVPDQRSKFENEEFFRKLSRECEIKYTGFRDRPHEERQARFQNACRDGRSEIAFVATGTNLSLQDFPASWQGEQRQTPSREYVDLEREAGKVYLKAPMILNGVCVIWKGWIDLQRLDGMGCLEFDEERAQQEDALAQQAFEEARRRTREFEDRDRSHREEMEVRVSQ

T2: Flag-CBFβ I55A–F68D (UniProt Q13951 1-170, I55A | F68D)
T2 construct: source: 293T, transfected, in lysate
T2 sequence: T1 sequence with I55A

T3: Flag-CBFβ I55D (UniProt Q13951 1-170, I55D)
T3 construct: source: 293T, transfected, in lysate
T3 sequence: T1 sequence with I55D, D68F

T4: Flag-CBFβ I55D–F68D (UniProt Q13951 1-170, I55D | F68D)
T4 construct: source: 293T, transfected, in lysate
T4 sequence: T1 sequence with I55D

T5: Flag-CBFβ (core-binding factor β), wild type (UniProt Q13951 1-170)
T5 construct: Flag-CBFβ expression plasmid obtained from Addgene; plasmid number not given; also called CBFβ-WT; WT CBFβ; source: 293T, transfected, in lysate
T5 sequence: T1 sequence with D68F

B1: HIV-1 Vif, wild type (natural protein)
chain: not shown
notes: HIV-1 Vif; Untagged; also called WT Vif; source: 293T, transfected, in lysate
B2: HIV-1 Vif 5WQVM8 > A4 (quadruple-alanine substitution mutant) (natural protein)
chain: not shown
notes: HIV-1 Vif; Untagged; also called 5WQVM8 > 4A; source: 293T, transfected, in lysate
B3: HIV-1 Vif W11A (natural protein)
chain: not shown
B4: HIV-1 Vif V7A–M8A (natural protein)
chain: not shown
B5: HIV-1 Vif 9IVW11 > A3 (triple-alanine substitution mutant) (natural protein)
chain: not shown
notes: HIV-1 Vif; Untagged; also called 9IVW11 > 3A; source: 293T, transfected, in lysate

Columns and labels:
[1] = target: T1, Flag-CBFβ F68D; assay: co-IP; 293T cells co-transfected with Flag-CBFβ (4 μg) and untagged Vif (4 μg); lysates after 48 h; anti-Flag immunoprecipitation; co-precipitated Vif quantified by western blot (Odyssey) relative to wild type set to 100%; for the CBFβ mutants endogenous CBFβ was first knocked down by siRNA against the 3' UTR (Fig. 5, 7) and cells were treated with MG132 (5 μM, 16 h) in Fig. 7; conditions: partners not purified
[2] = target: T2, Flag-CBFβ I55A–F68D; assay: as above; conditions: partners not purified
[3] = target: T3, Flag-CBFβ I55D; assay: as above; conditions: partners not purified
[4] = target: T4, Flag-CBFβ I55D–F68D; assay: as above; conditions: partners not purified
[5] = target: T5, Flag-CBFβ (core-binding factor β), wild …; assay: as above; conditions: partners not purified
[6] = target: T5, Flag-CBFβ (core-binding factor β), wild …; assay: cell-based or functional assay

| Binder | binding efficiency relative to WT Vif (100%) [5] | infectivity of virus produced with A3G in CBFβ-depleted (siRNA) 293T cells, relative to WT Vif with control siRNA (100%) [6] | further results |
| --- | --- | --- | --- |
| B1 |  |  | binding efficiency relative to CBFβ-WT (100%) [1]: ~28%; binding efficiency relative to CBFβ-WT (100%) [2]: ~8%; binding efficiency relative to CBFβ-WT (100%) [3]: ~15%; binding efficiency relative to CBFβ-WT (100%) [4]: ~8% |
| B2 | 2% |  |  |
| B3 |  | 4% |  |
| B4 |  | 8% |  |
| B5 | 0.3% |  |  |

— paper PMC5356271, “Identification of a tripartite interaction between the N-terminus of HIV-1 Vif and CBFβ that is critical for Vif function” (Retrovirology, 2017)
